Test: yeast display, Sf9 membrane polyspecificity reagent, FACS + sequencing; frameworks hold sequencing errors
Method in brief: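 Polyreactivity labels are assigned by the sorting gate from which each nanobody was recovered. The gates were low and high (top ~1%), set on anti-HA fluorescence for expression and streptavidin fluorescence for reagent binding. Before sorting, galactose-induced (36–48 hours) yeast display cells were stained for 1 hour at 4 °C with 10% biotinylated, detergent-solubilized Sf9 membrane reagent.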

Sequence | polyreactivity (PSR sort gate)
QVQLVESGGGLVQAGGSLRLSCAASGFIFQPYAMGWYRQAPRKERELVAAITSRGGRTYYADSVKGRFTISRDNAKNTVYLQMNSLKPEDTAVYYCNGDIYASEYYYWGQGTQVTVSS | low polyreactivity
QVQLVESGGGLVQEGGSLRLSCAASGFTFPYYAMGWYRQAPGKERELVAAITSSGTITYYADSVKGRFTISRDNAKNTVYLQMNSLKPEDTAVYYCAARFSSTRYLQWYYYWGQGTQVTVSS | high polyreactivity
QVQLVESGGGLVQAGGSLRLSCAASGGNFYYYVMGWYRQAPGKERELVAAITWSGGSTSYADSVKGRFTISRDNAKNTVYLQMNSLKPEDTAVYYCNADSTTQDYDYWGQGTQVSVSS | low polyreactivity
QVQLVESGGGLVKAGGSLRLSCAASGITFYIYDMGWYRQAPGKERELVATISWSDGRTYYADSVKGRFTISRDNAKNTVYLQMNSLKPEDTAVYYCASDWWYYQFDYEYWGQGTQVTVSS | low polyreactivity
QVQLVESGGGLVQAGGSLRLSCAAAGITFTVYAMGWYRPAPGKERELVAAISQSGGSTYYADSVKGRFTISRDNAKNTVSLQMNSMKPEDTAVYSCNADTVWVPYRTYIPFDYWGQGTQVTVSS | low polyreactivity
QVQLEESGRGLVQAGGSLRLSCASSGIIFDGNAMGWYRQAAGKERELVAAITGGGSTDNADSVKGRFTISRDNGKYTVYLQMNSLKPEDTAVYYCAAVRSYYPGYYLGQGTQVTVSS | high polyreactivity
QVQLVESGGGLVQAGGSLRLSCAASGSIFLRNAMGWYRQAPGKERELVAAITSNGGRTYYADSVKGRFTISRDNAKNTVYLQMNSLKPEDTAVYYCARVTRLGGGDYDYWGQGTQVTVSS | high polyreactivity
QVQLVESGGGLVQAGGSLRLSCAASGRIFHYYAMGWYRQAPGIERELVAAIRYSGGRTYYADSVKGRFTISRDNAKNTVYLQMNSLKPEDTAFYYCNAVPYVYKTITGDDYWGQGTQVTVSS | high polyreactivity
QVQLVESGGGLVQAGGSLRLSCAASGSTFGPYAMGWYRQAPGKERELVAAITWNGGSTYYADSVKGRFTISRDNAKNSVYLQMNSLKPEDTAVSFCNAVGSYGDFGYWGQGTQVTVSS | high polyreactivity
QVQLVESGGGLVQAGGSLRLSCAASGSIFRVYAMGWYRQAPGKERELVAGISSRGGTSTYYADSVKGRFTISRDNAKNSVYLQMNSLNPEETAVYYCAVQVRYPGYDYWGQGTQVTVSS | low polyreactivity
QVQLEDSGGGLVQAGGSLPLSCAASGSIFVQYDMGWYIQAPGKERELVAAINDSGDITYYADSVKARFTISRDNAKNTIYLQMNSLKPEDTAVYYCAASAAYYGFYKSVTYDYWGQGTQVTVSS | low polyreactivity
QVQHVESGGGLVQAGGSLRLSCAASGLIFYYYDMGWYRQPPGKERELVAAISYNGGTTYYSDSVKGRFTISRDNAKNTVYLQMNSLKPEDTAVYYCASEQLVSGYDYWGQGTQVTVSS | low polyreactivity
QVHLVESGGGLVQAGGSLRISCAASGNIFPNNGMGWNRQAPGKERELVAAISFNGDDTYADSVKGRFTISRDNAKNTVYLKMNSLNPEDTAVYYCNAVPGADQFSAPVITTAEDYWGQGTQVTVSS | low polyreactivity
QVQLVESGGGLVQAGGSLRLSCAASGTTFAWNTMGWYRQAPGKERELVARISRRSVSTYYADSVKGRFTISRDNAKNTVYLQMNSLKPEDTAVYYCAADYFSYQKYDYWGQGTQVTVSS | low polyreactivity
QVQLVESGGGLVQAGGSLRLSCAATGSIFQSYAMGRYRQAPGKERELVAGISSGGSTNYADSVKGRFTISRDNAMNTDYLQMNSLKPEDTAVYYCATGGFAGASFAYEYYYWGQGTQVTVSS | low polyreactivity
QVQLVESCGGLVQAGGSLRLSCAASGRTFGRNAMGWYRQAPGEREMVAVISRGGSTYYADSVKGRFTISRDNAKNTVYLQMNSLKPEDTAVYYCNADTVYTRTAPYDYWGQGTQVTVSS | low polyreactivity
QVQLVESGGGLVQAGGSLRLSCAASGFTFQRYAKGWYRQAPGKERDLVAAITRNGGSTYYADSVKGRFTISRDNAKNTVYLQMNSLKPDDTAVYYCNAEWFQFYWYPHYKVTRYEYWGQVTQVTVSS | high polyreactivity
QVQLVETGGLLVQAGGSLRLTCAGSGLIFYYYAMGCYRQAPGKERELVATISWYGGSTYADSVKGRFTISRDNAKNTVYLQMNSLKPEDPAVYYCAARYFVYYLEVDYWGQGTQVTVSS | low polyreactivity
QVQLVESGGGLVQAGGSLRLSCAASGNTFYTYGMGWYRQAPGKERELVAAINHNGGSTYYADSVKARFTISRDNAKNTVYLQMNSLKPEDTAVYYCNADYSTYVERGSSVYYWYDYWGQGTQVTVSS | low polyreactivity
QVQLVESGGGLVQAGGSLRLSCAASGRTFRIYAMGWYRQAPGKERELVAAINSGGTTNYADSVKGRFTISRDNAKNTVYLQMISLKPEDTAVYYCAVRYSKTLSHFSYDYWGQGTQLTVSS | low polyreactivity
QVHLVESGGGLVQAGGSLRLSCPASGRIFDWYAMGCYRQAPGKEREFVAVIDSSGGTYYADSVKGRFTISRDNAKNTVYLQMNSLKPEDTAVYYCAAEYGWWSFPEYDYWGQGTQVTVSS | low polyreactivity
QVQLVESGGGLVQAGGSLRLSCAASGRIFLNYDMGWYTQAPGKERELVADISISGSTDYADSVKWRFTISRDNAKKTVYLQMNCLKPEDTAVYYCATSFYVSDYYVPYEMGYWGQGTQVTVSS | low polyreactivity

Sequence | polyreactivity (PSR sort gate)
QVQLVESGGGLVQAGGSLRLSCAASGSIFISNAMGWYRQAPGKERELVAAISSSGGRTYYADSVKGRFTISRDNAKNTVYLQMNSLKPEDTAVYYCAVRGLYQGRRRYSSEYDYWGQGTQVTVSS | high polyreactivity
QVQLVESGGGLVQAGGSLRLSCAASGRIFRTNAMGWYRQAPGKEREFVAAISKDGGRTYYADSVKGRFTISRDNAKNTVYLQMNSLKPEDTAVYYCNVLVKHSTTTYSTYDYWGQGTQVTVSS | high polyreactivity
QDQLVESGGGLVQAGGSLRLSCAASGSIFYRNAMGWYIQATGKERELVAAISSDGSTNYADSVKGRFTISRDNAKNTVYLQMNSLKPEDTAVYFCAAPWTQILDYWGQGTQVTVSS | low polyreactivity
QVQLVESGGGLVQAGGSLRLICAASGRTFFRYGMGWYRQAPGKEREFVAAITRSGTTTYYADSVKGRFTISRDNAKNTVYLQMNSLKPEDTAVYYCDAQRAAPVDGKSDYWGQGTQVTLSS | low polyreactivity
QVQLVESGGGLVQAGGSLRLSCAASGFIFPWYAMGWYRQAPGKERELVAAISESGGGTYYADSVKGRFTISRDYAKNTVYLQMNSLKPEDTAVYYCNKAPRYPYGGYDYWGQGTQVTVSS | low polyreactivity
QVQLVESGGGLVQAGGSLRLSCAASGSIFSWYTMGWYRQAPGKERELVARITTSGGTSTYYADSVKGRFTISRDNAKNTVYLQMNSLKPEDTAVYYCAADSPTSLYEYWGQGTQVTVSS | high polyreactivity
QVQLVESGGGLVQAGGSLRLSCAASRGIFWVYAMGWYRQATGKEREMVAAISNSDTSTSYADSVKGRFTISRDNAKNTVYLQMNSLKPEDTALYYCNADSPSLSGDYWGQGTQVTVSS | low polyreactivity
QVQLVDSGGGLVQAGGSLRLSCAASGSIFYYNAMGWYRPAPGKERELVAAITSSGGSTYYADSVKGRFTISRDNAKNTVYLQMNSLKPEDTAVYYCYAGATALRYRPYSSAYDYWGQGTQVTVSS | low polyreactivity
QVQLVESGGGLVQAGGSLRLSCAASGRTFLIYAMGWYRQAPGKERELVAGITRGSTTYADSVKGRFTISRDNAKNTVYLQMNSLKPEDTAVYYCAARNYSVATYGEYDDWGQGTQVTVSS | high polyreactivity
QVQLVESGGGIVQAGGSLSLSCAASGYNFTQNAMGGYRQAPGKERELVASITSGGSTDYADSVKGRFTISRDNAKNTVYLQMNSLKPEDTAVYYCAAEFHFWGYLYDYWGQGTQVTVSS | low polyreactivity
QVQLVESGGGLVQAGGSLRLSCAASGLTFPRYTMGWYRQPPGKERELVAAISSSTGTTNYADSVKGRFTISRDNAKNTVYLQMNSLKPEDTAVYYCAKRVSSWLGFHLDYWGQGTQVTVSS | low polyreactivity
QDQLVESGGGLVQAGGSLRLSCAASGSTFSYYAMGWYRQAPGKERELVAAITWSDGSTYYADSVKGRFTISRDYAKNTVYLQMNSLKPEDTAVYYCNAEISQLDGVTFKYDYWGQGTQVTVSS | low polyreactivity
QVQLVESGGGLVQAGGSLRLSCAASGRIFYYNAMGWYRQAPGKERELVAAISYTSGRTYYADSVKGRFTISRDNAKNTVYLQMNSLKPEDTAVYYCAADYYLRKGMDYWGQVTQVTVSS | low polyreactivity
QVHLVESGGGLVQAGGSLRLSCADYGRTFSRYAMGWYRQAPGKERELVATINSRAGITNYPDTVKGRFTISRDNAKNTVYLQMTSLKPEDTAVYYCNRGRPGGPSWYHFDYWGQGSQVTVSS | high polyreactivity
QVQLVESGGGLVQAGGSLRLSCAASGIIFEYYAMGWYRQAPGKERELVAAITRGGSTYYADSVKGRFTISRDNAKNTVYLQMNSLKAEDTAVYYCAADRYYYEYDYWGQGTQVTVSS | low polyreactivity
QVQLVESGGGLVQAGGSLRLSCAASGFIFYHYAMGWYRQAPGKERELVAAISWSGGSTYYADSVKGRFTISRDNAKNTVYLQMNSLKPEDTAVYYCAAANTNRFPYGYWGQGTQVTVSS | high polyreactivity
QVQLVESGGGLVQAGGSLRLSCAASGRTFAFYTLGWYRQAPGKERELVAAITRNGSTSYADSVKGRFTISRDNAKNTVFLQMNRLKPEDTAVYYCATVGYPYTLWHQMDYWGQGTQVTVSS | low polyreactivity
QVQLVESGGGLVQAGGSLRLSCAASGITFYDNDMGWYRQAPGKERELVAGITGTTVGTYYADSVKGRFTISRDYAKNTVYLQMNSLKPEDTAVYYCAATSLAGYYQFDYWGQGTQVTVSS | low polyreactivity
QVQLVESGGGLVQAGGSLRLSCAASGSTFFLNAMGWYRQAPGKERELVAAISYSDSGTNYADSVKGRFTISRDNAKNTVYLQMNSLKPEDTAVYYCATAVRPWYVTSGNYWGQGTQVTVSS | low polyreactivity
QVQLVESGGGLVQAGGRLRLSCAASGRSYPPYAMGWYREAPGKERELLAAISYSGGSTYYADSVTGRFTISRDNAKNPVYLQMNSLKPEDTSVFYCNKDISREVGIRMDDWGQGTQVTVSS | high polyreactivity
QVQLVDSGGGLVQAGVSLRLSCAASGFIFYRYAMVWYRQAPGKERELVAAINWSGGGTYYADSVKGRFTISRDNAKNTVYLLMNSLKPEDTAVYYCAAVRSFRGSYWYEYWGQGSQVTVSS | high polyreactivity
